Results as given in PMC10522771, “The C-terminal transactivation domain of MITF interacts promiscuously with co-activator CBP/p300” (Scientific Reports, 2023).

T1: MITF_(CTERM) (UniProt O75030-9 289-419)
T1 construct: numbers count on: the MITF-M isoform; 15N-labelled for the NMR titration; also called C-terminal MITF-M; MITF C-terminal region; source: E. coli BL21 (DE3), purified (Ni-NTA, TEV cleavage, Q-Sepharose)
T1 sequence (looked up): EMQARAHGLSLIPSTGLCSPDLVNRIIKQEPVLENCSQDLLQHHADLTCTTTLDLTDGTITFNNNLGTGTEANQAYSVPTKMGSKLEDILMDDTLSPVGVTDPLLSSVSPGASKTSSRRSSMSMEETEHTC

T2: MITF_(ΔAcidic) (UniProt O75030-9 289-419, Δ372–381)
T2 construct: numbers count on: the MITF-M isoform; also called Δ372–381; deletion of the acidic region; source: E. coli BL21 (DE3), purified (Ni-NTA, TEV cleavage, Q-Sepharose)
T2 sequence (looked up): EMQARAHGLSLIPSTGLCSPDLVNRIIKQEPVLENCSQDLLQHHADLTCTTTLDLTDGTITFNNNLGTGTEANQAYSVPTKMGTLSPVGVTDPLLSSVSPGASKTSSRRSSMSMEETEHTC

T3: MITF_(ΔSer-rich) (UniProt O75030-9 289-419, Δ394–411)
T3 construct: numbers count on: the MITF-M isoform; The methods print Δ372–381 for this variant too; the legend, the results and the canonical numbers (Δ501–518) give Δ394–411; also called Δ394–411; deletion of the serine-rich region; source: E. coli BL21 (DE3), purified (Ni-NTA, TEV cleavage, Q-Sepharose)
T3 sequence (looked up): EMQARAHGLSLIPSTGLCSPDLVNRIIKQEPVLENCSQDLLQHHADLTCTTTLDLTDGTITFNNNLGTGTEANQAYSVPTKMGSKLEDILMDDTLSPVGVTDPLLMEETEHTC

T4: MITF_(ΔThr-rich) (UniProt O75030-9 289-419, Δ334–345)
T4 construct: numbers count on: the MITF-M isoform; The methods print Δ334–354; the legend, the results and the canonical numbers (Δ441–452) give Δ334–345; also called Δ334–345; deletion of the threonine-rich region; source: E. coli BL21 (DE3), purified (Ni-NTA, TEV cleavage, Q-Sepharose)
T4 sequence (looked up): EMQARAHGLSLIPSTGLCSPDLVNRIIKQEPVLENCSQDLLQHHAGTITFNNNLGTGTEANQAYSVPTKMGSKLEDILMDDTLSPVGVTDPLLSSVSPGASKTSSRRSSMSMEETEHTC

B1: TAZ2 domain of CBP/p300 (domain or fragment)
chain: GDSRRLSIQRCIQSLVHACQCRNANCSLPSCQKMKRVVQHTKGCKRKTNGGCPICKQLIALCCYHAKHCQENKCPVPFCLNI
B2: TAZ1 domain of CBP/p300 (domain or fragment)
chain: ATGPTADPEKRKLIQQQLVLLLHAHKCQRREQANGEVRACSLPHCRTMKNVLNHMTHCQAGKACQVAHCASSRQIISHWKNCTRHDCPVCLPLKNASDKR
modifications: three structural Zn2+ ions expected; the paper does not state CBP or p300, species or limits (described in a cited paper); mouse CBP TAZ1 340-439 taken by convention

Columns and labels:
Assay in all cases: ITC; 400 µM TAZ1 or TAZ2 in the syringe injected into 16–30 µM MITF construct in the cell; 20 mM TRIS pH 8, 25 mM NaCl, 5 mM βME, 10 µM ZnCl2; 30 °C; single-binding-site fit; duplicate
Details in all cases: both partners purified
[1] = target: T1, MITF_(CTERM)
[2] = target: T2, MITF_(ΔAcidic)
[3] = target: T3, MITF_(ΔSer-rich)
[4] = target: T4, MITF_(ΔThr-rich)

Binder | Kd [1] | Kd [2] | Kd [3] | Kd [4]
B1 | 760 ± 50 nM | 7240 ± 700 nM | 2260 ± 90 nM | 410 ± 20 nM
B2 | 5000 ± 310 nM | – | – | –
